According to patent US20210054355A1 (NEW YORK UNIVERSITY, published 2021):

B2: αKlotho^ecto/ΔRBA (soluble αKlotho ectodomain lacking L544 to T565 of the KL2 β1α1 loop) (receptor)
chain: EPGDGAQTWARVSRPPAPEAAGLFQGTFPDGFLWAVGSAAYQTEGGWQQHGKGASIWDTFTHHPLAPPGDSRNASLPLGAPSPLQPATGDVASDSYNNVFRDTEALRELGVTHYRFSISWARVLPNGSAGVPNREGLRYYRRLLERLRELGVQPVVTLYHWDLPQRLQDAYGGWANRALADHFRDYAELCFRHFGGQVKYWITIDNPYVVAWHGYATGRLAPGIRGSPRLGYLVAHNLLLAHAKVWHLYNTSFRPTQGGQVSIALSSHWINPRRMTDHSIKECQKSLDFVLGWFAKPVFIDGDYPESMKNNLSSILPDFTESEKKFIKGTADFFALCFGPTLSFQLLDPHMKFRQLESPNLRQLLSWIDLEFNHPQIFIVENGWFVSGTTKRDDAKYMYYLKKFIMETLKAIKLDGVDVIGYTAWSLMDGFEWHRGYSIRRGLFYVDFLSQDKMLLPKSSALFYQKLIEKNGFPPLPENQPLEGTFPCDFAWGVVDNYIQVDTTLSQFTDKKRKSYCVDFAAIQPQIALLQEMHVTHFRFSLDWALILPLGNQSQVNHTILQYYRCMASELVRVNITPVVALWQPMAPNQGLPRLLARQGAWENPYTALAFAEYARLCFQELGHHVKLWITMNEPYTRNMTYSAGHNLLKAHALAWHVYNEKFRHAQNGKISIALQADWIEPACPFSQKDKEVAERVLEFDIGWLAEPIFGSGDYPWVMRDWLNQRNNFLLPYFTEDEKKLIQGTFDFLALSHYTTILVDSEKEDPIKYNDYLEVQEMTDITWLNSPSQVAVVPWGLRKVLNWLKFKYGDLPMYIISNGIDDGLHAEDDQLRVYYMQNYINEALKAHILDGINLCGYFAYSFNDRTAPRFGLYRYAADQFEPKASMKHYRKIIDSNGFPGPETLERFCPEEFTVCTECSFFHTRKS
notes: the mature protein is E34 to S959; Expressed and purified like the wild type (pEF1α/myc-His A); also called α-Klotho^ecto/deltaRBA; αKlotho^ecto/ΔRBA mutant
B3: FGFR1c^ecto (human FGFR1c ligand-binding domain, D2, D3 and D2-D3 linker) (receptor)
chain: DNTKPNRMPVAPYWTSPEKMEKKLHAVPAAKTVKFKCPSSGTPNPTLRWLKNGKEFKPDHRIGGYKVRYATWSIIMDSVVPSDKGNYTCIVENEYGSINHTYQLDVVERSPHRPILQAGLPANKTVALGSNVEFMCKVYSDPQPHIQWLKHIEVNGSKIGPDNLPYVQILKTAGVNTTDKEMEVLHLRNVSFEDAGEYTCLAGNSIGLSHHSAWLTVLEALEER

Columns and labels:
[1] = molecular target: T1, Soluble human α-Klotho ectodomain (αKlotho^ecto) (human, UniProt Q9UEF7 34-981); experiment: SEC-MALS, 1:1:1 mixture with FGFR1c^ecto and αKlotho^ecto
T1 construct: also called wild-type αKlotho^ecto; soluble αKlotho
T1 sequence: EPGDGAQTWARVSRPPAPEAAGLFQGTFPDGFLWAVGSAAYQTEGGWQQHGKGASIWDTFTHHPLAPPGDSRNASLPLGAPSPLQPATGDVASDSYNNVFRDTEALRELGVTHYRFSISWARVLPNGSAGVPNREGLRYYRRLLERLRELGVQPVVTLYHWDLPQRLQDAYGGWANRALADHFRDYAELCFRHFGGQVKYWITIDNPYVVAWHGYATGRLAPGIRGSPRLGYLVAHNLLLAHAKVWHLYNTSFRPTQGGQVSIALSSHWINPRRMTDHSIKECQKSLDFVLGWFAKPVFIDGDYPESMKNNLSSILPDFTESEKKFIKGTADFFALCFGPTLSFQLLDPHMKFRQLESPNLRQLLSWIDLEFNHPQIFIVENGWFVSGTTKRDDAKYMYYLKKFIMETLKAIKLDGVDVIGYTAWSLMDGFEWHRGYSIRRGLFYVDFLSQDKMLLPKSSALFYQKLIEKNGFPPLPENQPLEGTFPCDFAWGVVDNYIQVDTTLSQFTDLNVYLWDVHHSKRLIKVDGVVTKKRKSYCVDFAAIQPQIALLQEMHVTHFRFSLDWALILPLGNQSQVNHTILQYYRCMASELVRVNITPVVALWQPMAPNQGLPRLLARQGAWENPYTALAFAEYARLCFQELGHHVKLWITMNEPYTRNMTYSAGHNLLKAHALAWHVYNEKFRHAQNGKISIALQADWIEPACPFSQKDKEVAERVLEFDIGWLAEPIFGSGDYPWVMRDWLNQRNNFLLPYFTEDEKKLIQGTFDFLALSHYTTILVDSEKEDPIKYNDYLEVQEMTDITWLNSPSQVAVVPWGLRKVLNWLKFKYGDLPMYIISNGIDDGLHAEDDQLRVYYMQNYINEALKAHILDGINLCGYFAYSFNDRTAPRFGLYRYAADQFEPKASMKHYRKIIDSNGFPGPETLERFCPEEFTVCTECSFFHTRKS
Experimental: (§1) A Superdex 200 10/300 GL column (GE Healthcare, USA) was placed in-line between the HPLC pump (Waters 1525) and the HPLC UV (Waters 2998 Photodiode Array), laser light scattering, and refractive index detectors. Light scattering and refractive index detectors were calibrated following the manufacturer's guidelines. The refractive index increment (dn/dc) in which n is the refractive index and c is the concentration of the mixture of DDM and CHS in 20 mM Tris-HCl pH 8.0 buffer containing 300 mM NaCl, was determined offline using an Optilab T-rEX refractive index detector. Monomeric bovine serum albumin (#23210, Thermo Scientific, USA) was used as part of routine data quality control.
(§2) 60 ml or more of 25 mM HEPES pH 7.5 buffer containing 150 mM NaCl were passed through the system at a flow rate of 0.5 mL/min to equilibrate the Superdex 200 10/300 GL column and establish stable baselines for light scattering and refractive index detectors. Purified αKlotho^ecto, FGER1c^ecto (wild type or mutant), and FGF23 (wild type or mutant) proteins were mixed at a molar ratio of 1:1:1 and concentrated to 12.5 μM. 50 μl of protein samples with a molar equivalent of a heparin hexasaccharide (#H006, Iduron, Manchester, U.K.) were injected onto the gel filtration column, and the column eluent was continuously monitored for 280 nm absorbance, laser light scattering, and refractive index. […]

[2] = molecular target: B3; experiment: SEC-MALS, 1:1:1 ternary complex with FGFR1c^ecto and αKlotho^ecto
Experimental: as §1, §2

[3] = molecular target: T2, FGF23 C-terminal tail peptide (FGF23^C-tail) (human); experiment: fluorescence dye-based thermal shift assay (SYPRO Orange), 1:1 mixture; over the peak of αKlotho^ecto/ΔRBA alone the sheet prints 51 [right]
T2 construct: The peptide may have been shorter, e.g. S180 to S205
T2 peptide: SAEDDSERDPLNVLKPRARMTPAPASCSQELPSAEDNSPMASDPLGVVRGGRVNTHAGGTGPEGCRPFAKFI
Experimental: Fluorescence Dye-Based Thermal Shift Assay: SYPRO Orange dye (#S6650, ThermoFisher Scientific, USA) was used as the fluorescent probe. 15 μl of 20 μM solutions of protein samples (wild-type and mutated forms of FGF23; αKlotho^ecto or αKlotho^{ecto/ΔRBA} alone; 1:1 mixtures of αKlotho^ecto or αKlotho^{ecto/ΔRBA} with FGF23 C-terminal tail peptide) were mixed with 5 μl of working dye solution (1:25 dilution) in duplicate in PCR strips. A temperature gradient from 4° C. to 100° C. at 1° C./minute increment was carried out with a CFX96 Touch™ Real-Time PCR Detection System (Bio-Rad, USA). Fluorescence was recorded as a function of temperature in real time. The melting temperature (Tm) was calculated with StepOne software v2.2 as the maximum of the derivative of the resulting SYPRO Orange fluorescence curves.

[4] = molecular target: B2; experiment: SEC-MALS of a 1:1 mixture, UV280 absorbance and molecular weight against retention time [panel A]
[5] = molecular target: T1, Soluble human α-Klotho ectodomain …; experiment: as above

B1: FGF23^ΔSRBS (FGF23^WT carrying M149A/N150A/P151A) (ligand)
chain: YPNASPLLGSSWGGLIHLYTATARNSYHLQIHKNGHVDGAPHQTIYSALMIRSEDAGFVVITGVMSRRYLCMDFRGNIFGSHYFDPENCRFQHQTLENGYDVYHSPQYHFLVSLGRAKRAFLPGAAAPPYSQFLSRRNEIPLIHFNTPIPRQHTQSAEDDSERDPLNVLKPRARMTPAPAS
B1: binds [1]; binds [2].

With B2 the “melting temperature (peak of derivative fluorescence) of the mixture” value [3] was 57.5 °C.

B3: no binding [4]; binds [5].
